According to the Immune Epitope Database (IEDB):
pKd: −log10 of the molar value.

Key:
HLA-A*02:01 = test: IEDB peptide-MHC binding, purified MHC/competitive/radioactivity; filed as Kd, often an IC50 or EC50 that approximates it; ≥ and ≤ were set here for values at or beyond the usual limits of such assays
HLA-A*02:06 = test: as above
HLA-A*02:17 = test: as above
HLA-A*30:02 = test: as above; conditions: source organism: Dengue virus 4 Philippines/H241/1956
HLA-B*35:01 = test: as above; conditions: source organism: Dengue virus 4 Philippines/H241/1956
HLA-B*48:01 = test: IEDB peptide-MHC binding, purified MHC/direct/fluorescence; filed as Kd, often an IC50 or EC50 that approximates it; ≥ and ≤ were set here for values at or beyond the usual limits of such assays
HLA-B*58:01 [1] = test: IEDB peptide-MHC binding, purified MHC/competitive/radioactivity; filed as Kd, often an IC50 or EC50 that approximates it; ≥ and ≤ were set here for values at or beyond the usual limits of such assays; conditions: source organism: Dengue virus 2 Jamaica/1409/1983
HLA-B*18:01 = test: as above
HLA-B*40:01 = test: as above
HLA-B*40:02 = test: as above
HLA-B*44:02 = test: as above
HLA-B*44:03 = test: as above
HLA-B*45:01 = test: as above
HLA-B*08:01 = test: as above; conditions: source organism: Dengue virus 2 Peru/IQT2913/1996
HLA-B*15:01 = test: as above; conditions: source organism: Dengue virus 2 Peru/IQT2913/1996
HLA-A*02:03 = test: as above
HLA-A*32:01 = test: as above; conditions: source organism: Dengue virus 3 Martinique/1243/1999
HLA-B*15:17 = test: IEDB peptide-MHC binding, purified MHC/direct/fluorescence; filed as Kd, often an IC50 or EC50 that approximates it; ≥ and ≤ were set here for values at or beyond the usual limits of such assays
HLA-B*57:01 = test: as above
HLA-B*58:01 [2] = test: as above
[3] = source organism: Dengue virus 4 Philippines/H241/1956
[4] = source organism: Dengue virus 3 Martinique/1243/1999
[5] = source organism: Dengue virus 2 Jamaica/1409/1983
[6] = source organism: West Nile virus
[7] = source organism: Mammarenavirus machupoense
[8] = source organism: Dengue virus 2 Thailand/NGS-C/1944
[9] = source organism: Mammarenavirus lassaense
[10] = source organism: Mammarenavirus juninense
[11] = source organism: Dengue virus 1 Singapore/S275/1990
[12] = source organism: Dengue virus 1 Brazil/97-11/1997
[13] = source organism: SARS coronavirus Tor2
[14] = source organism: Camelpox virus M-96
[15] = source organism: Mammarenavirus choriomeningitidis
[16] = source organism: Marburg virus - Musoke, Kenya, 1980
[17] = source organism: Mammarenavirus guanaritoense

KQLGQVMLLV
pKd (HLA-A*02:01; [3]): 7.69 | pKd (HLA-A*02:06; [4]): 8.24 | pKd (HLA-A*02:17; [3]): 6.76

YAGPFSQHNY
pKd (HLA-A*30:02): 7.83 | pKd (HLA-B*35:01): 6.95

ALLLLVAHYA
pKd (HLA-A*02:01; [5]): 5.88 | pKd (HLA-A*02:17; [5]): ≤ 4.15

GRMEKKTWK
pKd (HLA-B*48:01; [6]): ≤ 4.70

WMSSEGAWKH
pKd (HLA-B*58:01 [1]): 6.67

AEWLEMICF
pKd (HLA-B*18:01; [7]): 6.79 | pKd (HLA-B*40:01; [7]): 5.70 | pKd (HLA-B*40:02; [7]): 7.71 | pKd (HLA-B*44:02; [7]): 7.35 | pKd (HLA-B*44:03; [7]): 7.17 | pKd (HLA-B*45:01; [7]): 7.08

LMMTTIGIVL
pKd (HLA-A*02:01; [8]): 7.54 | pKd (HLA-A*02:06; source organism: Dengue virus 2 Peru/IQT2913/1996): 7.51 | pKd (HLA-A*02:17; [8]): 5.92 | pKd (HLA-B*08:01): 5.23 | pKd (HLA-B*15:01): 7.66

SMINGVVKL
pKd (HLA-A*02:03; [4]): 7.74 | pKd (HLA-A*02:17; source organism: Dengue virus 3 China/80-2/1980): 6.37 | pKd (HLA-A*32:01): 5.83

KSFLVHREW
pKd (HLA-B*15:17; [6]): 8.24

SMAMTCIAV
pKd (HLA-A*02:01; [3]): 7.92 | pKd (HLA-A*02:03; [3]): 8.39 | pKd (HLA-A*02:17; [3]): 7.13

FLDLPLPWA
pKd (HLA-A*02:01; [3]): 7.98 | pKd (HLA-A*02:17; [3]): 6.97

YDQMKCKSL
pKd (HLA-B*18:01; [9]): ≤ 4.11 | pKd (HLA-B*40:01; [9]): ≤ 4.12 | pKd (HLA-B*40:02; [9]): 5.49 | pKd (HLA-B*44:02; [9]): ≤ 4.12 | pKd (HLA-B*44:03; [9]): ≤ 4.11 | pKd (HLA-B*45:01; [9]): ≤ 4.23

REPAGLGSM
pKd (HLA-B*18:01; [9]): 5.09 | pKd (HLA-B*40:01; [9]): 5.10 | pKd (HLA-B*40:02; [9]): 7.07 | pKd (HLA-B*44:02; [9]): ≤ 4.47 | pKd (HLA-B*44:03; [9]): ≤ 4.11 | pKd (HLA-B*45:01; [9]): ≤ 4.11

PDVLRSDVY
pKd (HLA-B*18:01; [10]): 5.65 | pKd (HLA-B*40:01; [10]): ≤ 4.12 | pKd (HLA-B*40:02; [10]): ≤ 4.11 | pKd (HLA-B*44:02; [10]): ≤ 4.31 | pKd (HLA-B*44:03; [10]): ≤ 4.11 | pKd (HLA-B*45:01; [10]): ≤ 4.11

LLLTIGLSLV
pKd (HLA-A*02:01; [11]): 8.41 | pKd (HLA-A*02:03; [12]): 7.84 | pKd (HLA-A*02:06; [12]): 7.21 | pKd (HLA-A*02:17; [11]): 5.58

GQWGGDWAV
pKd (HLA-B*48:01; source organism: Brucella abortus 2308): 7.21

SLSMTCIAV
pKd (HLA-A*02:01; [11]): 7.87 | pKd (HLA-A*02:03; [12]): 6.91 | pKd (HLA-A*02:17; [11]): 7.31

REAYCQEFSL
pKd (HLA-B*18:01; [9]): 4.95 | pKd (HLA-B*40:01; [9]): 5.01 | pKd (HLA-B*40:02; [9]): 8.87 | pKd (HLA-B*44:02; [9]): 5.97 | pKd (HLA-B*44:03; [9]): 5.55 | pKd (HLA-B*45:01; [9]): 5.81

GEDTVWEVQG
pKd (HLA-B*18:01; [13]): ≤ 4.15 | pKd (HLA-B*40:01; [13]): ≤ 4.53 | pKd (HLA-B*40:02; [13]): 4.74 | pKd (HLA-B*44:02; [13]): ≤ 4.35 | pKd (HLA-B*44:03; [13]): 4.79 | pKd (HLA-B*45:01; [13]): 5.39

ISGSNIVIF
pKd (HLA-B*15:17; [14]): 6.81 | pKd (HLA-B*57:01; [14]): ≤ 4.70 | pKd (HLA-B*58:01 [2]; [14]): 6.04

QEIQLLAAV
pKd (HLA-B*18:01; [13]): 6.84 | pKd (HLA-B*40:01; [13]): 7.58 | pKd (HLA-B*40:02; [13]): 4.71 | pKd (HLA-B*44:02; [13]): 7.03 | pKd (HLA-B*44:03; [13]): 7.31 | pKd (HLA-B*45:01; [13]): 8.06

FEDQFLPFMS
pKd (HLA-B*18:01; [15]): 5.62 | pKd (HLA-B*40:01; [15]): 5.41 | pKd (HLA-B*40:02; [15]): 6.51 | pKd (HLA-B*44:02; [15]): 4.84 | pKd (HLA-B*44:03; [15]): ≤ 4.57 | pKd (HLA-B*45:01; [15]): 5.46

ATAVNQECW
pKd (HLA-B*15:17; [16]): 8.39 | pKd (HLA-B*57:01; [16]): 6.91 | pKd (HLA-B*58:01 [2]; [16]): 7.29

ADSEITETY
pKd (HLA-B*18:01; [17]): 5.86 | pKd (HLA-B*40:01; [17]): ≤ 4.42 | pKd (HLA-B*40:02; [17]): ≤ 4.11 | pKd (HLA-B*44:02; [17]): 5.18 | pKd (HLA-B*44:03; [17]): 5.56 | pKd (HLA-B*45:01; [17]): 4.77
